Biological target: mouse serum albumin (MSA) (mouse, UniProt P07724 25-608)
Assay: yeast surface display library on rcSso7d scaffold, selection for MSA binders

Binder | binding result
M18.2.5 (designed binder, Isolated from a yeast surface display library built on the rcSso7d scaffold; In the vaccines it was fused at its C-terminus to GGGS-His tag-GGGS-E7 long) ATVKFTYRGEEKQVDISKIKWVVRLGQVIMFKYDEGGGASGYGRVSEKDAPKELLQMLEK | binds
M11.1.2 (designed binder, Isolated from a yeast surface display library built on the rcSso7d scaffold; In the vaccines it was fused at its C-terminus to GGGS-His tag-GGGS-E7 long) ATVKYTYRGEEKRVDISKIKWVNRWGQHLAFKYDKGGGAAGYGWVSEKDAPKELLQMLEKR | binds
